Reference: patent publication US20230034906A1 (TRINOMAB BIOTECH, published 2023)

What was measured:
[1] = target: T1, homologous sequence of gB glycoprotein of 56 virus strains (gB_Con. Strain) (human cytomegalovirus (homologous …, UniProt P06473 25-699)); test: ELISA, HEK293 culture supernatant on gB
T1 construct: C-terminal tags are part of the entry
T1 chain: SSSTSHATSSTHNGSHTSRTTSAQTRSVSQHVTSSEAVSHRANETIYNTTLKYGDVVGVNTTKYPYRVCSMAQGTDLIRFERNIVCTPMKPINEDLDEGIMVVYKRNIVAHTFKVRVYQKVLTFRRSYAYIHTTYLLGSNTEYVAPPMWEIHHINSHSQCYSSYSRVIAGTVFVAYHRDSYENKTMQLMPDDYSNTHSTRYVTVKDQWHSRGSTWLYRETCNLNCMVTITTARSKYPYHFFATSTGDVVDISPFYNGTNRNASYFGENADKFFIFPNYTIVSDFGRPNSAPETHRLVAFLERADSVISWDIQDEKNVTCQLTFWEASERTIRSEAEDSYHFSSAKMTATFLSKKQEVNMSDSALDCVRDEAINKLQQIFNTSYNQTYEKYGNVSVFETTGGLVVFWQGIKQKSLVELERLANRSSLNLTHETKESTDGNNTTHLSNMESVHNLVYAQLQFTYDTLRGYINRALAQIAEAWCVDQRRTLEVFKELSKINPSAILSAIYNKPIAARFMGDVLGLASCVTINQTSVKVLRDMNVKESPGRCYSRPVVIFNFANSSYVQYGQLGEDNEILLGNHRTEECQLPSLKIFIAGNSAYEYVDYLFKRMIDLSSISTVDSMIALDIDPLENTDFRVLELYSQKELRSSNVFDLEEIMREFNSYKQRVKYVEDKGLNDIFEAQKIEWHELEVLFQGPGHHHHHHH

[2] = target: T2, gB_Towne protein with N417 mutated into glutamine (human cytomegalovirus, strain Towne, UniProt F5HB53 25-700); test: indirect ELISA, antibody titrated on gB glycoprotein mutant
T2 chain: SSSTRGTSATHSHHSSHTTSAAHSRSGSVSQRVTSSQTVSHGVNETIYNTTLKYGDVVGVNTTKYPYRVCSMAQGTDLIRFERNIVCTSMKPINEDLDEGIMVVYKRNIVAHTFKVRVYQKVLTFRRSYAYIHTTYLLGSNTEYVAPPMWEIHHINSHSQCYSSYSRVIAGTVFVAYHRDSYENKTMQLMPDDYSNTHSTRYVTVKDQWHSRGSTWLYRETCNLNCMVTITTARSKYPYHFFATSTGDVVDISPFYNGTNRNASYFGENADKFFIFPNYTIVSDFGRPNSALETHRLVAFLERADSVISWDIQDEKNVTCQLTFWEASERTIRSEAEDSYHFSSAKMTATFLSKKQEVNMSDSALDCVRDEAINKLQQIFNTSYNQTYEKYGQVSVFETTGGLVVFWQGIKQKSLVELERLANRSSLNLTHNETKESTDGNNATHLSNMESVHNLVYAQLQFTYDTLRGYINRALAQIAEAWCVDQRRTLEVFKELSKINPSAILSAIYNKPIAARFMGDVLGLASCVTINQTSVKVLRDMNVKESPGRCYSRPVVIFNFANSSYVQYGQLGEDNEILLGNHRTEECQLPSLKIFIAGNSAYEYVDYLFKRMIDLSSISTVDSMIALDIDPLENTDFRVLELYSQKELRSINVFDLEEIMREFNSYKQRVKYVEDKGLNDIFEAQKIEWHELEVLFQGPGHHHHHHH

[3] = target: T3, gB_Towne protein with N447 mutated into glutamine (human cytomegalovirus, strain Towne, UniProt F5HB53 25-700); test: as above
T3 chain: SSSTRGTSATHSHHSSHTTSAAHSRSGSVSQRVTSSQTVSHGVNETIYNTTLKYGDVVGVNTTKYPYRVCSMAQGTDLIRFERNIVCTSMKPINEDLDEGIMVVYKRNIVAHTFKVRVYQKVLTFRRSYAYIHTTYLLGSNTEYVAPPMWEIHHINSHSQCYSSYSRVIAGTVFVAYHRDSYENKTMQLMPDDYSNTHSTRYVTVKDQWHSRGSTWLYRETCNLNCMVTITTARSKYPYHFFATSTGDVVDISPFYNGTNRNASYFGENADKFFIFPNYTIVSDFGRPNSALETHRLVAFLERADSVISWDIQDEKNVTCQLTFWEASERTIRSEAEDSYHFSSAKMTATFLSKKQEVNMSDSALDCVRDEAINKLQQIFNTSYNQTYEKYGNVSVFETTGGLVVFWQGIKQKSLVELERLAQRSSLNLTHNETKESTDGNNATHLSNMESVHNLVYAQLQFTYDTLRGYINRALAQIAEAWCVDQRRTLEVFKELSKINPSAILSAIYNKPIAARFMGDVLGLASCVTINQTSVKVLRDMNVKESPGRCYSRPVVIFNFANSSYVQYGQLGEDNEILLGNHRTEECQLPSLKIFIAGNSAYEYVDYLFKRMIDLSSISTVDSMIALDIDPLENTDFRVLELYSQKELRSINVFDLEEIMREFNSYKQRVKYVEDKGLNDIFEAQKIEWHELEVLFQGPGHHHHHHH

[4] = target: T4, gB_Towne protein with N302 mutated into glutamine (human cytomegalovirus, strain Towne, UniProt F5HB53 25-700); test: as above
T4 chain: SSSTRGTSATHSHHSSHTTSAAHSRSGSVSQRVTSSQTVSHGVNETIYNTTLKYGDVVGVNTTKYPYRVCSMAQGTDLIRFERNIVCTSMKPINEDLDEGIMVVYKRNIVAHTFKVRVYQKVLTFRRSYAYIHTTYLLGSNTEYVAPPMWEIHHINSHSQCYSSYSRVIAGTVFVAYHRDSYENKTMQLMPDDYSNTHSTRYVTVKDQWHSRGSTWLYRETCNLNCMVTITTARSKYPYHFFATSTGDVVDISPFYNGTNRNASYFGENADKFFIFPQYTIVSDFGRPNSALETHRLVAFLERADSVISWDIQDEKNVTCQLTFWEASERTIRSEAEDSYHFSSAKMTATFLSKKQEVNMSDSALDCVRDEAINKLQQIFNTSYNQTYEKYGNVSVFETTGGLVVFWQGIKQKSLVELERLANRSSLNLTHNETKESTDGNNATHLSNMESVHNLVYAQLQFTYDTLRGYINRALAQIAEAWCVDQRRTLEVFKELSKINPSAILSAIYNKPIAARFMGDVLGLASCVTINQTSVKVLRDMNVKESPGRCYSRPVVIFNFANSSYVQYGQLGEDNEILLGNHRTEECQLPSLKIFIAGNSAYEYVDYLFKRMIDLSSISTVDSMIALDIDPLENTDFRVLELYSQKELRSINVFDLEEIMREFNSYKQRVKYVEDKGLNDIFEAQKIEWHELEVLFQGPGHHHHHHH

Measured: binding result

B1: TRN1019 (antibody, V domains shown)
VH: QVQLVQSGAEVKKPGESLKISCKGSGYTFTNYWIGWVRQMPGAGLEWMAIIFPRDSYSAYSPSFQGRVTISVDKSISTAYLHWSSLEASDTAVYYCAIYNDLRSGNSWGQGTPLIVSS
VL: DIQMTQSPSSLSASVGDRVTITCRASQSITKYLNWYQQKPGRAPKLLIHTTSTLQSGVPSRFSGSGSGTDFTLTISSLQLEDFGTYYCQQSFSTLWTFGQGTKLDIKR
notes: Fully human antibody; kappa light chain
binds: all assays above
